Experiment [1] addresses CusB N-terminal fragment residues 1-61, S(Met) (unlabelled) (Escherichia coli).
The target is the same in experiment [2]. The experiment in a line: rapid freeze quench X-ray absorption spectroscopy (RFQ-XAS, Se K edge); 23 °C; 1:2 mixture of apo-SeM-CusF with Cu(I)-loaded S(met)-CusB-NT, 50 mM HEPES pH 7.5, 5% ethylene glycol, liquid ethane quench, 15 ms to 30 s; Se-Cu peak height fitted (DYNAFIT) to rapid protein-protein association followed by intra-complex metal transfer; the complex shares one Cu(I) between ligands of both proteins.

CusB N-terminal fragment residues 1-61, S(Met) (unlabelled) (Escherichia coli), sequence (P77239 29-89 limits assumed): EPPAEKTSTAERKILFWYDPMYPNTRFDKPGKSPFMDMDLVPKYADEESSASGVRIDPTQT

In experiment [1], “CusF(6-88) M8I M59I double mutant, S(Met) (unlabelled) (domain or fragment)” had a fast phase of the quenching of the CusF W44 344 nm emission, stopped-flow fluorescence, 4 °C, apo-S(met)-CusF mixed with Cu(I)-S(Met)-CusB-NT of 165 s⁻¹ and a slow phase of the quenching of the CusF W44 344 nm emission, stopped-flow fluorescence, 4 °C, apo-S(met)-CusF mixed with Cu(I)-S(Met)-CusB-NT of 0.012 s⁻¹.
By kon is commonly meant the second-order rate constant of association. Regarding “selenomethionine-labelled CusF(6-88) M8I M59I double mutant (domain or fragment)”, in experiment [2], the kon turned out to be 1e+06 M⁻¹ s⁻¹.

The record behind these values is PMC6235853.
